The values below come from patent publication US20140315822A1.

The target in test [1] is T1, PDZ domain of the human MAST2 protein (human), Q6P0Q8.
T1 chain: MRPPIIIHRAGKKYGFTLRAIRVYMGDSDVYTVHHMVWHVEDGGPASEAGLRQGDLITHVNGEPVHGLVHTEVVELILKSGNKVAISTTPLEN

The target in test [2] is T2, PDZ domain of the human PTPN4 protein (human), P29074.
T2 chain: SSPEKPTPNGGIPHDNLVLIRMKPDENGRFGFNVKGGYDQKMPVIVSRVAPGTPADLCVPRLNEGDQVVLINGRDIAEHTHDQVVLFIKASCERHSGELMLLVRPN
Nature of the test: method not restated in the table; ITC per paragraph 50.

B1: ATT13 (peptide)
peptide: SWESHKSGGETRL
modifications: not checked
Broadly, the Kd is the free concentration of one partner at which half of the binding sites on the other are occupied at equilibrium, for simple one-to-one binding. A high value points to lower affinity. In the case of B1, the Kd in test [1] was 0.57 µM; in test [2], 160 µM.
